Patent US20260174875A1 (Novo Nordisk A/S, priority 2023, published 2026)
Numbered stars: 1 amine (or outer) side, 2 acyl side, 3 side chain; on linkers, the order of the positions; unused ones are H or OH. Square brackets hold non-standard residues; d marks the D form. Side chains are listed from the residue outwards. * marks the point of attachment. C20 diacid = O=C(O)CCCCCCCCCCCCCCCCCCC(=O)*; C18 diacid = O=C(O)CCCCCCCCCCCCCCCCC(=O)*; C16 diacid = O=C(O)CCCCCCCCCCCCCCC(=O)*; γGlu = O=C(O)[C@H](CCC(=O)[*:2])N[*:1]; Chem. 27 = not defined here; Chem. 28 = not defined here; Chem. 29 = not defined here; AEEA = NCCOCCOCC(=O)O; Aib = CC(C)(N)C(=O)O

T1: human amylin-3(a) receptor (human, UniProt P30988 25-474; O60896 24-148)
T1 sequence (looked up) 1: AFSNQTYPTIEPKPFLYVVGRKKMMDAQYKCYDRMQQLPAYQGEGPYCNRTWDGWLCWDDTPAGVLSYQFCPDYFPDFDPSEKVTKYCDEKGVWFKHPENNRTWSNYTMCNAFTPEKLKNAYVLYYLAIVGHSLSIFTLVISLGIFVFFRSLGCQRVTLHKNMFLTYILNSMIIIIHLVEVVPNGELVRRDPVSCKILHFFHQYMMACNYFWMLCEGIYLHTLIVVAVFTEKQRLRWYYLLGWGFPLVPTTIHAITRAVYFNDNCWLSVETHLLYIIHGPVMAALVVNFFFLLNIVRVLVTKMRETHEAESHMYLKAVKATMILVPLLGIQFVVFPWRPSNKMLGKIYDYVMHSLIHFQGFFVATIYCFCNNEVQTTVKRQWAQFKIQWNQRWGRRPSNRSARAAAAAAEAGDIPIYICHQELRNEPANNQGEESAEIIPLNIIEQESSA
T1 sequence (looked up) 2: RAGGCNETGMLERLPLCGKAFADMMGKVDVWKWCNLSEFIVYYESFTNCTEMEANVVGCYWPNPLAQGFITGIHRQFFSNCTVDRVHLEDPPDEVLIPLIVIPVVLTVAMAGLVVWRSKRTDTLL

T2: human GIP receptor (human, UniProt P48546 22-466)
T2 sequence (looked up): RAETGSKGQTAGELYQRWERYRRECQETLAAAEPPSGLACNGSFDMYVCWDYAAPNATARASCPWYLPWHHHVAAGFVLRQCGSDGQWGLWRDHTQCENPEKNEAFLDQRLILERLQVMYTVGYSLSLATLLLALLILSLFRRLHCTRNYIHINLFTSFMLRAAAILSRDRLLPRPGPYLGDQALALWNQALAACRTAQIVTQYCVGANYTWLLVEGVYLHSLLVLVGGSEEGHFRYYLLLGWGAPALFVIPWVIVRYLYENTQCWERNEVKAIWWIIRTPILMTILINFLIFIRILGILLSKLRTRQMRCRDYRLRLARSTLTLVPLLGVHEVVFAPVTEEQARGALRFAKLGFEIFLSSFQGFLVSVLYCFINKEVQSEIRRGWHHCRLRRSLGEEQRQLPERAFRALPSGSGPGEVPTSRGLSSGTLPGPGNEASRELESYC

B1: Compound 101 (peptide)
peptide: H[Aib]HGTFTSDYSILLEEQAAREFIEWLLAGGPSK(Chem. 28)GAPPPSGGGEASHLSTAQTARLSAELHQLATLPRTETGSGSP-NH2
modifications: reading uncertain
B2: Compound 102 (peptide)
peptide: Y[Aib]EGTFTSDYSILLEEQAAREFIEWLLAGGPSSGAGQAPGQAPGASHLSTAQTQRLSAELHQLK(Chem. 28)TLPRTETGSGSP-NH2
modifications: reading uncertain
B3: Compound 103 (peptide)
peptide: H[Aib]HGTFTSDYSILLEEQAAREFIEWLLAGGPSSGAGQAPGQAPGASHLSTAQTARLSAELHK(Chem. 28)LATLPRTETGSGSP-NH2
modifications: reading uncertain
B4: Compound 104 (peptide)
peptide: H[Aib]HGTFTSDYSILLEEQAAREFIEWLLAGGPSSGAGQAPGQAPGASHLSTAQTARLSAELHK(Chem. 27)LATLPRTETGSGSP-NH2
modifications: reading uncertain
B5: Compound 105 (peptide)
peptide: Y[Aib]EGTFTSDYSILLEEQAAREFIEWLLAGGPSSGALQAPGQAPLASHLSTAQTARLSAELHK(Chem. 28)LATLPRTETGSGSP-NH2
modifications: reading uncertain
B6: Compound 106 (peptide)
peptide: H[Aib]HGTFTSDYSILLEEQAAREFIEWLLAGGPSSGALQAPGQAPGASHLSTAQTARLSAELHRLK(Chem. 28)TLPRTETGSGSP-NH2
modifications: reading uncertain
B7: Compound 11 (peptide)
peptide: Y[Aib]EGTFTSDYSILLEEQAAREFIEWLLAGGPSK(Chem. 29)GEASELSTAALGRLSAELHELATLPRTETGSGSP-NH2
modifications: reading uncertain
B8: Compound 107 (peptide)
peptide: H[Aib]HGTFTSDYSILLEEQAAREFIEWLLAGGPSSGALQAPGQAPGASHLSTAQTARLSAELHRLATLPK(Chem. 28)TETGSGSP-NH2
modifications: reading uncertain
B9: Compound 108 (peptide)
peptide: H[Aib]HGTFTSDYSILLEEQAAREFIEWLLAGGPSSGALQAPGQAPLASHLSTAQTARLSAELHK(Chem. 28)LATLPRTETGSGSP-NH2
modifications: reading uncertain
B10: Compound 109 (peptide)
peptide: Y[Aib]EGTFTSDYSILLEEQAAREFIEWLLAGGPSSGAPPPSGGGEASHLSTAQTQRLSAK(Chem. 28)LHRLATLPRTETGSGSP-NH2
modifications: not fully specified; reading uncertain
B11: Compound 110 (peptide)
peptide: Y[Aib]EGTFTSDYSILLEEQAAREFIEWLLAGGPSSGAPPPSGGGEASHLSTAQTQRLSAK([AEEA-AEEA-γGlu-C20 diacid])LHRLATLPRTETGSGSP-NH2
modifications: not fully specified
B12: Compound 111 (peptide)
peptide: Y[Aib]EGTFTSDYSILLEEQAAREFIEWLLAGGPSSGAGQAPGQAPGASHLSTAQTQRLSAELHRLK([AEEA-AEEA-AEEA-γGlu-C18 diacid])TLPRTETGSGSP-NH2
B13: Compound 112 (peptide)
peptide: H[Aib]HGTFTSDYSILLEEQAAREFIEWLLAGGPSK([γGlu-C18 diacid])GAPPPSGGGEASHLSTAQTARLSAELHRLADLPRTETGSGSP-NH2
B14: Compound 113 (peptide)
peptide: Y[Aib]EGTFTSDYSILLEEQAAREFIEWLLAGGPSSGAGQAPGQAPGASHLSTAQTARLSAELHK([AEEA-AEEA-γGlu-C18 diacid])LATLPRTETGSGSP-NH2
B15: Compound 114 (peptide)
peptide: Y[Aib]EGTFTSDYSILLEEQAAREFIEWLLAGGPSSGAGQAPGQAPGASHLSTAALARLSAELHK([AEEA-AEEA-γGlu-C18 diacid])LATLPRTETGSGSP-NH2
B16: Compound 12 (peptide)
peptide: H[Aib]HGTFTSDYSILLEEQAAREFIEWLLAGGPSK([AEEA-AEEA-γGlu-C16 diacid])GAPPPSGGGEASELSTAALGRLSAELHELATLPRTETGSGSP-NH2
B17: Compound 14 (peptide)
peptide: H[Aib]HGTFTSDYSILLEEQAAREFIEWLLAGGPSK([AEEA-AEEA-γGlu-C18 diacid])GAPPPSGGGGASELSTAALGRLSAELHRLATLPRTETGSGSP-NH2

What follows are binders tested against T3, human GLP-1 receptor (human, UniProt P43220 24-463) (assay: cell-based or functional assay).

Row | Binder | hGLP-1R Potency, no HSA, EC50 [pM]
1 | B1 | 3.24
2 | B2 | 11
3 | B3 | 5.24
4 | B4 | 4.16
5 | B5 | 12.6
6 | B6 | 3.33
7 | B7 | 10.4
8 | B8 | 4.1
9 | B9 | 4.57
10 | B10 | 68.9
11 | B11 | 107
12 | B12 | 15.9
13 | B13 | 4.37
14 | B14 | 14.4
15 | B15 | 43.3
16 | B16 | 0.8
17 | B17 | 2.05

What follows are binders tested against T1, human amylin-3(a) receptor (assay: cell-based or functional assay).

Row | Binder | hAMYR3 Potency, no HSA, EC50 [pM]
18 | B1 | 3.08
19 | B2 | 3.26
20 | B3 | 2.42
21 | B4 | 1.49
22 | B5 | 2.88
23 | B6 | 2.07
24 | B7 | 12.8
25 | B8 | 3.07
26 | B9 | 2.48
27 | B10 | 3.65
28 | B11 | 3.27
29 | B12 | 3.33
30 | B13 | 3.65
31 | B14 | 2.53
32 | B15 | 2.27
33 | B16 | 6.23
34 | B17 | 2.21

These binders were tested against T2, human GIP receptor (assay: cell-based or functional assay).

Row | Binder | hGIPR Potency, no HSA, EC50 [pM]
35 | B1 | 1.87
36 | B2 | 2.24
37 | B3 | 3.14
38 | B4 | 3.57
39 | B5 | 3.08
40 | B6 | 4.8
41 | B7 | 1.69
42 | B8 | 3.87
43 | B9 | 4.01
44 | B10 | 7.42
45 | B11 | 8.01
46 | B12 | 3.66
47 | B13 | 2.42
48 | B14 | 2.02
49 | B15 | 4.29
50 | B16 | 2.62
51 | B17 | 5.84

Target: T3, human GLP-1 receptor
Experiment: cell-based or functional assay
Remark: another data set of the same source

Row | Binder | hGLP-1R Potency, 1% HSA, EC50 [pM]
52 | B1 | 179
53 | B2 | 47
54 | B3 | 33.1
55 | B4 | 19.1
56 | B5 | 48.9
57 | B6 | 11.1
58 | B7 | 204
59 | B8 | 13.9
60 | B9 | 15
61 | B10 | 94.7
62 | B11 | 169
63 | B12 | 34.8
64 | B13 | 336
65 | B14 | 57.5
66 | B15 | 126
67 | B16 | 10.2
68 | B17 | 75.9

Target: T1, human amylin-3(a) receptor
Experiment: cell-based or functional assay
Remark: another data set of the same source

Row | Binder | hAMYR3 Potency, 1% HSA, EC50 [pM]
69 | B1 | 95.5
70 | B2 | 134
71 | B3 | 73.6
72 | B4 | 293
73 | B5 | 113
74 | B6 | 31.2
75 | B7 | 211
76 | B8 | 93.1
77 | B9 | 60
78 | B10 | 32
79 | B11 | 94
80 | B12 | 66.4
81 | B13 | 269
82 | B14 | 136
83 | B15 | 45.2
84 | B16 | 55
85 | B17 | 33.4

Target: T2, human GIP receptor
Experiment: cell-based or functional assay
Remark: another data set of the same source

Row | Binder | hGIPR Potency, 1% HSA, EC50 [pM]
86 | B1 | 129
87 | B2 | 12.2
88 | B3 | 13.3
89 | B4 | 17.3
90 | B5 | 12.5
91 | B6 | 10.3
92 | B7 | 58.3
93 | B8 | 8.76
94 | B9 | 11.4
95 | B10 | 17.4
96 | B11 | 29.3
97 | B12 | 12.2
98 | B13 | 321
99 | B14 | 8.96
100 | B15 | 17.2
101 | B16 | 59.1
102 | B17 | 254
